Measurements taken from PMC7308502, “Genome Segregation by the Venus Flytrap Mechanism: Probing the Interaction Between the ParF ATPase and the ParG Centromere Binding Protein” (Frontiers in Molecular Biosciences, 2020).

How the values were obtained:
[1] = molecular target: T1, ParF (Salmonella enterica, UniProt Q9KJ83); assay: sedimentation assay of higher-order assembly; assay type: binding; conditions: 2 mM nucleotide, 5 mM MgCl2, 30 mM Tris-HCl pH 8.0, 100 mM KCl, 30 °C
T1 construct: full-length, His-tagged (pET-22b(+)), produced in E. coli BL21(DE3); monomer with ADP, dimer and higher-order with ATP
T1 sequence (Q9KJ83 1-206): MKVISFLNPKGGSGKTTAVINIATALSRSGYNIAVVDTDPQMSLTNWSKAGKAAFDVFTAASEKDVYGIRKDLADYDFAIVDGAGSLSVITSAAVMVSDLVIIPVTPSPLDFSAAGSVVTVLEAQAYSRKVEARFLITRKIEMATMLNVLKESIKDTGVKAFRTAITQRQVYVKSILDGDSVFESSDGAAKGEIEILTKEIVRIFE
Description: sedimentation assay of higher-order assembly on ParF | ATP or non-hydrolyzable ATPγS increased the levels of higher-order assemblies of wild-type ParF

[2] = molecular target: T1, ParF; assay: fluorescence anisotropy titration; assay type: binding; conditions: read-out: apparent Kd; 20 mM HEPES, 150 mM NaCl, 1 mM MgCl2, pH 7.0; 0.9 μM labelled compound; possible hydrolysis during measurement
[3] = molecular target: wild-type ParF, His-tagged, purified (plasmid TP228 (in Escherichia coli))
[4] = molecular target: wild-type ParF, His-tagged, purified (plasmid TP228 (in Escherichia coli)); assay: co-sedimentation
[5] = molecular target: wild-type ParF fused to the T18 or T25 fragment of Bordetella pertussis adenylate cyclase (plasmid TP228 (in Escherichia coli)); assay: two-hybrid

**Q.** For Nc1ncnc2c1ncn2[C@@H]1O[C@H](COP(=O)(O)OP(=O)(O)OP(=O)(O)O)[C@@H](O)[C@H]1O [ATP], which “fold increase in pellet fraction” value [1] is on record?
**A.** ~ 2 fold

**Q.** For Nc1ncnc2c1ncn2[C@@H]1O[C@H](COP(=O)(O)OP(=O)(O)OP(O)(O)=S)[C@@H](O)[C@H]1O [ATPγS], which “fold increase in pellet fraction” value [1] is on record?
**A.** ~ 2 fold

**Q.** For CNc1ccccc1C(=O)O[C@H]1[C@@H](O)[C@H](n2cnc3c(N)ncnc32)O[C@@H]1CO[P@@](=O)(O)O[P@](=O)(O)OP(=O)(O)O [MANT-ATP], which Kd [2] is on record?
**A.** ~500 nM

**Q.** With “ParG, His-tagged, purified (natural protein)” as the compound, how does the fold stimulation of ParF ATPase activity by ParG (ParF 1 μM, ParG 0-20 μM, 5 μM ATP) [3] read?
**A.** 20 fold

**Q.** What about the percent of ParG in the pellet fraction (with ATPγS) [4] of the same compound?
**A.** 50%

**Q.** For “wild-type ParF fused to the T18 or T25 fragment of Bordetella pertussis adenylate cyclase (natural protein)”, which β-galactosidase units (β-galactosidase units) [5] is on record?
**A.** 700

**Q.** How did the percent of ParF in the pellet fraction (with ParG and ATPγS) [4] turn out when “wild-type ParF, His-tagged, purified (enzyme)” was run?
**A.** 80%
